Assay results: the supplement of paper PMC9732359
± gives the uncertainty stated by the source.

Experiment: protein stability index of a GFP-peptide fusion (yeast GPS) (PSI 1-4); higher = more stable; sorted into four equal gates, so the index is relative within each strain
Summary of the method: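 Yeast carrying a pooled library were grown to mid-log phase in leucine-free medium. Each library plasmid expresses Cherry and has a tiled 17-residue yeast protein peptide fused downstream of GFP. Cells were sorted into four equal gates by GFP/Cherry ratio, and plasmids from each gate were PCR-amplified, Illumina-sequenced and assigned to strains by barcode. Summing, across gates, the read frequency times the gate number gave each peptide's protein stability index.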

Sequence | protein stability index (doa10∆) | protein stability index (pdr5∆) | protein stability index (san1∆) | protein stability index (ubr1∆)
KPIQNGEIIDISAFTQF [ARP9] | 3.02 ± 0.098 | 2.76 ± 0.085 | 2.64 ± 0.091 | 2.98 ± 0.061
CKLFDKISFNLRLKLFL [SRB8] | 1.41 ± 0.069 | 1.23 ± 0.055 | 1.2 ± 0.086 | 1.18 ± 0.046
EKSDALVGVYRQQQENS [SMC1] | 3.25 ± 0.13 | 3.37 ± 0.098 | 3.41 ± 0.12 | 2.85 ± 0.096
DPKFVNSLLAKLKDSKK [YML103C/NUP188] | 2.54 ± 0.2 | 2.86 ± 0.1 | 1.99 ± 0.15 | 2.54 ± 0.082
NKAQAKMDKRAKTSDSA [RPL8B] | 3.34 ± 0.23 | 3.02 ± 0.12 | 3.27 ± 0.066 | 3.31 ± 0.071
FSDKVNALWILVDLVSH [ITC1] | 1.4 ± 0.079 | 1.23 ± 0.051 | 1.35 ± 0.094 | 1.27 ± 0.045
GQQSVEGKRIAFGFVDR [RPO21] | 3.25 ± 0.2 | 3.01 ± 0.2 | 3.44 ± 0.11 | 3.52 ± 0.14
KESAVISKQKSKLDYIF [SMC1] | 3.04 ± 0.18 | 2.81 ± 0.11 | 3.05 ± 0.11 | 2.98 ± 0.12
YGKPTNQGVNELKYQRS [RPL15A] | 2.9 ± 0.16 | 3.23 ± 0.17 | 2.59 ± 0.14 | 3.03 ± 0.087
ELLEYSDDIAENDNLDN [YCG1] | 3.06 ± 0.058 | 3.27 ± 0.068 | 3.21 ± 0.049 | 3.25 ± 0.054
SLAATYSMISLQNCCII [ARP9] | 1.47 ± 0.057 | 1.33 ± 0.056 | 1.26 ± 0.099 | 1.26 ± 0.041
SFALPFEEDEKNSDVWF [RPN8] | 3.28 ± 0.08 | 3.23 ± 0.072 | 3.14 ± 0.051 | 3.26 ± 0.06
GGSSDTADKIRIHAKNF [GAL11] | 1.67 ± 0.066 | 1.86 ± 0.061 | 1.42 ± 0.072 | 1.68 ± 0.054
MGQGLCNNINKGLKEND [BRR2] | 3.13 ± 0.095 | 3.57 ± 0.15 | 3.2 ± 0.071 | 3.39 ± 0.1
LERLTLVFCKHITSVPI [GRR1] | 1.47 ± 0.057 | 1.42 ± 0.084 | 1.17 ± 0.14 | 1.44 ± 0.047
SQIIARNEEILRDIGEC [SMC2] | 2.79 ± 0.077 | 2.46 ± 0.091 | 2.85 ± 0.062 | 3.07 ± 0.084
GKGLQSAIDVLDPLTKD [RPN2] | 2.28 ± 0.069 | 2.56 ± 0.079 | 2.44 ± 0.1 | 2.81 ± 0.069
TMETKTLPEKKQFDSIF [SIR4] | 2.44 ± 0.047 | 2.69 ± 0.057 | 2.84 ± 0.047 | 2.65 ± 0.043
LTSQAPQTTQMFQSQSQ [YDL088C/ASM4] | 3.12 ± 0.11 | 3.16 ± 0.071 | 3.08 ± 0.046 | 3.06 ± 0.057
SEEKIRDYSKEILGINL [SIR4] | 3.17 ± 0.14 | 3.03 ± 0.083 | 2.88 ± 0.073 | 3.06 ± 0.064
DLIHKSEAFPSLQSCSV [SMC4] | 2.53 ± 0.085 | 2.32 ± 0.061 | 2.47 ± 0.067 | 2 ± 0.041
AVVVGTGNIKHEDLVNS [COR1] | 3.05 ± 0.11 | 2.79 ± 0.12 | 2.93 ± 0.077 | 2.71 ± 0.11
GKEVEVLMETKNTQSPQ [SNU114] | 3.19 ± 0.22 | 3.6 ± 0.095 | – | 3.44 ± 0.11
QIEGPFLIIVPKSTLDN [ISW2] | 2.88 ± 0.13 | 2.12 ± 0.1 | 2.17 ± 0.088 | 1.75 ± 0.097
IDYKLRVLTQDGRVYIG [SMB1] | 2.49 ± 0.09 | 2.71 ± 0.076 | 1.67 ± 0.11 | 2.5 ± 0.048
LEDLVFPTEIVGKRVRY [RPS7A] | – | 3.52 ± 0.28 | – | 3.71 ± 0.25
